Measured values reported in patent publication US20260152573A1 (ARGENX, published 2026).
Numbering of substitutions follows the chain as printed. Names and notes keep the numbering of the source.

Key:
human serum albumin [1] = target: T1, human serum albumin (human, UniProt P02768 25-609); assay: SPR Biacore, HSA coated, kinetic fit, pH 5.5
T1 construct: Immobilised on SPR chips; also added in solution in the FcRn occupancy assays; also called HSA; humanSA

[2] = target: T2, neonatal Fc receptor (FcRn), endogenous in U937 cells (human, UniProt P55899 24-365; P61769 21-119); assay: FcRn occupancy, FACS, U937 cells, with albumin
T2 construct: whole, on cells; Free FcRn was stained intracellularly after fixation and permeabilisation
Experimental: Next, FcRn occupancy was tested using a cell-based FcRn occupancy assay in the presence or absence of albumin. […] Cells (HEK FcRn mut or U937) were plated in a 96-well microplate. Cells were incubated with test article for two hours, shaking at 37° C., pH 7.4 in FACS buffer. Plates were then transferred immediately on ice and cells were collected by centrifugation at 4° C. Cells stained for viability in FACS buffer at pH 6 and then fixed/permeabilized in permeabilization buffer at pH 6. […] Cells were analyzed by FACS, ensuring that they are kept on ice until immediately prior to analysis.

human serum albumin [3] = target: T1, human serum albumin; assay: SPR Biacore, HSA coated, steady state, pH 5.5
human serum albumin [4] = target: T1, human serum albumin; assay: SPR Biacore, HSA coated, kinetic fit, pH 7.4
human serum albumin [5] = target: T1, human serum albumin; assay: SPR Biacore, HSA coated, steady state, pH 7.4
human serum albumin [6] = target: T1, human serum albumin; assay: SPR Biacore 8K+ SCK, albumin on chip, pH 7.4
mouse serum albumin = target: T3, mouse serum albumin (mouse, UniProt P07724 25-608); assay: SPR Biacore 8K+ SCK, albumin on chip, pH 7.4
T3 construct: Immobilised on SPR chips; also called mouseSA; MSA

[7] = target: T4, cynomolgus monkey serum albumin (cynomolgus monkey, UniProt A2V9Z4 25-608); assay: SPR Biacore 8K+ SCK, albumin on chip, pH 7.4
T4 construct: Immobilised on SPR chips; also called cynoSA; cynomolgus albumin

human serum albumin [8] = target: T1, human serum albumin; assay: SPR Biacore 8K+ SCK, albumin on chip, pH 7.4; remark: listed apart in the source
human serum albumin [9] = target: T1, human serum albumin; assay: SPR Biacore 3000, HSA on chip, pH 7.4
human serum albumin [10] = target: T1, human serum albumin; assay: SPR Biacore 3000, HSA on chip, ratio of R0 at pH 5.5 and pH 7.4
human serum albumin [11] = target: T1, human serum albumin; assay: SPR Biacore 3000, HSA on chip, pH 5.5

T2 sequence (P55899 24-365 limits assumed, chain 1 of 2): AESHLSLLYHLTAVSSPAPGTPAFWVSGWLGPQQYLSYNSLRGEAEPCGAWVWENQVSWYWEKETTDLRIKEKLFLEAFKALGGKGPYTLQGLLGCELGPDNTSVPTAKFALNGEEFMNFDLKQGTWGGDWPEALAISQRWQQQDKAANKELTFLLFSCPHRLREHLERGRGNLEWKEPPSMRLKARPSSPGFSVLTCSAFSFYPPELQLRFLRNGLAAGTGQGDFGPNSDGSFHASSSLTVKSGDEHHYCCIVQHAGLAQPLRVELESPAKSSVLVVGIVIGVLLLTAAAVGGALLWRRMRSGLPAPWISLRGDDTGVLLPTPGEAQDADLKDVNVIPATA
T2 sequence (P61769 21-119 limits assumed, chain 2 of 2): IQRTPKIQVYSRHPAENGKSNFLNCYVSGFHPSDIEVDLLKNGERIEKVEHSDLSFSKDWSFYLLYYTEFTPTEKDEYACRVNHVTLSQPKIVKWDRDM

B1: OA-Fc-ABDEG-Alb23 (Fc fusion)
chain: DKTHTCPPCPAPELLGGPSVFLFPPKPKDTLYITREPEVTCVVVDVSHEDPEVKFNWYVDGVEVHNAKTKPREEQYNSTYRVVSVLTVLHQDWLNGKEYKCKVSNKALPAPIEKTISKAKGQPREPQVYTLPPSRDELTKNQVSLWCLVKGFYPSDIAVEWESNGQPENNYKTTPPVLDSDGSFFLYSKLTVDKSRWQQGNVFSCSVMHEALKFHYTQKSLSLSPGGGGGSGGGGSGGGGSGGGGSEVQLLESGGGLVQPGGSLRLSCAASGFTFRSFGMSWVRQAPGKGPEWVSSISGSGSDTLYADSVKGRFTISRDNSKNTLYLQMNSLRPEDTAVYYCTIGGSLSRSSQGTLVTVSS
Fc: DKTHTCPPCPAPELLGGPSVFLFPPKPKDTLYITREPEVTCVVVDVSHEDPEVKFNWYVDGVEVHNAKTKPREEQYNSTYRVVSVLTVLHQDWLNGKEYKCKVSNKALPAPIEKTISKAKGQPREPQVYTLPPSRDELTKNQVSLSCAVKGFYPSDIAVEWESNGQPENNYKTTPPVLDSDGSFFLVSKLTVDKSRWQQGNVFSCSVMHEALKFHYTQKSLSLSPG
notes: also called one-armed Fc-ABDEG-Alb23; OA-Fc-ABDEG-Alb23 (parental)
Kd (human serum albumin [1]): 16.6 nM
% max occupancy [2]: 67.4%
IC50 [2]: 5.2 nM
Kd (human serum albumin [3]): 32.7 nM

B2: OA-Fc-ABDEG-Alb23-G33A/G53A (Fc fusion)
chain: B1 chain with G279A, G299A
Fc: B1 Fc
Kd (human serum albumin [1]): 90.2 nM
Kd (human serum albumin [4]): 499 nM
Kd (human serum albumin [5]): 767 nM
Kd (human serum albumin [3]): 135 nM

B3: OA-Fc-ABDEG-Alb23-S101A (Fc fusion)
chain: B1 chain with S347A
Fc: B1 Fc
Kd (human serum albumin [1]): 54.3 nM
Kd (human serum albumin [4]): 255 nM
Kd (human serum albumin [5]): 353 nM
Kd (human serum albumin [3]): 67.5 nM

B4: OA-Fc-ABDEG-Alb23-S52A (Fc fusion)
chain: B1 chain with S298A
Fc: B1 Fc
Kd (human serum albumin [1]): 34.2 nM
Kd (human serum albumin [4]): 167 nM
Kd (human serum albumin [5]): 27.3 nM
Kd (human serum albumin [3]): 49.5 nM

B5: OA-Fc-ABDEG-Alb23-S52A/G53A (Fc fusion)
chain: B1 chain with S298A, G299A
Fc: B1 Fc
Kd (human serum albumin [1]): 47.7 nM
Kd (human serum albumin [4]): 204 nM
Kd (human serum albumin [5]): 298 nM
Kd (human serum albumin [3]): 65.9 nM

B6: OA-Fc-ABDEG-Alb23-S52A/S101A (Fc fusion)
chain: B1 chain with S298A, S347A
Fc: B1 Fc
Kd (human serum albumin [1]): 95.6 nM
Kd (human serum albumin [4]): 501 nM
Kd (human serum albumin [5]): 579 nM
Kd (human serum albumin [3]): 124 nM

B7: OA-Fc-ABDEG-Alb23-G53A (Fc fusion)
chain: B1 chain with G299A
Fc: B1 Fc
Kd (human serum albumin [1]): 20.6 nM
Kd (human serum albumin [4]): 78.8 nM
Kd (human serum albumin [5]): 158 nM
Kd (human serum albumin [3]): 36.7 nM

B8: OA-Fc-ABDEG-Alb23-S101T (Fc fusion)
chain: B1 chain with S347T
Fc: B1 Fc
Kd (human serum albumin [1]): 54.9 nM
Kd (human serum albumin [4]): 206 nM
Kd (human serum albumin [5]): 315 nM
Kd (human serum albumin [3]): 70.8 nM

B9: OA-Fc-ABDEG-Alb23-G33A (Fc fusion)
chain: B1 chain with G279A
Fc: B1 Fc
Kd (human serum albumin [1]): 124 nM
Kd (human serum albumin [4]): 150 nM
Kd (human serum albumin [5]): 863 nM
Kd (human serum albumin [3]): 145 nM

B10: Alb23 D57A (VHH)
VHH: EVQLLESGGGLVQPGGSLRLSCAASGFTFRSFGMSWVRQAPGKGPEWVSSISGSGSATLYADSVKGRFTISRDNSKNTLYLQMNSLRPEDTAVYYCTIGGSLSRSSQGTLVTVSS
notes: VHH alone
Kd (human serum albumin [6]): 5.58 nM
Kd (mouse serum albumin): 50.6 nM
Kd [7]: 6.25 nM

B11: Alb23 Y60A (VHH)
VHH: B10 VHH with A57D, Y60A
notes: VHH alone
Kd (human serum albumin [6]): 4.28 nM
Kd (mouse serum albumin): 42.2 nM
Kd [7]: 4.58 nM

B12: Alb23 D62A (VHH)
VHH: B10 VHH with A57D, D62A
notes: VHH alone
Kd (human serum albumin [6]): 3.07 nM
Kd (mouse serum albumin): 36.5 nM
Kd [7]: 3.48 nM

B13: Alb23 T58A (VHH)
VHH: B10 VHH with A57D, T58A
notes: VHH alone
Kd (human serum albumin [6]): 5.97 nM
Kd (mouse serum albumin): 57.1 nM
Kd [7]: 6.83 nM

B14: Alb23 V64A (VHH)
VHH: B10 VHH with A57D, V64A
notes: VHH alone
Kd (human serum albumin [6]): 2.9 nM
Kd (mouse serum albumin): 31.9 nM
Kd [7]: 4.11 nM

B15: Alb23 S50A (VHH)
VHH: B10 VHH with S50A, A57D
notes: VHH alone
Kd (human serum albumin [6]): 2.33 nM
Kd (mouse serum albumin): 19 nM
Kd [7]: 2.6 nM

B16: Alb23 R104A (VHH)
VHH: B10 VHH with A57D, R104A
notes: VHH alone
Kd (human serum albumin [6]): 4.58 nM
Kd (mouse serum albumin): 49.7 nM
Kd [7]: 4.92 nM

B17: Alb23 S35A (VHH)
VHH: B10 VHH with S35A, A57D
notes: VHH alone
Kd (human serum albumin [6]): 4.95 nM
Kd (mouse serum albumin): 37.6 nM
Kd [7]: 5.24 nM

B18: Alb23 S56A (VHH)
VHH: B10 VHH with S56A, A57D
notes: VHH alone
Kd (human serum albumin [6]): 3.33 nM
Kd (mouse serum albumin): 37.7 nM
Kd [7]: 3.65 nM

B19: Alb23 S54A (VHH)
VHH: B10 VHH with S54A, A57D
notes: VHH alone
Kd (human serum albumin [6]): 2.81 nM
Kd (mouse serum albumin): 25.6 nM
Kd [7]: 3.13 nM

B20: Alb23 K65A (VHH)
VHH: B10 VHH with A57D, K65A
notes: VHH alone
Kd (human serum albumin [6]): 5.36 nM
Kd (mouse serum albumin): 52.3 nM
Kd [7]: 3.18 nM

B21: Alb23 S31A (VHH)
VHH: B10 VHH with S31A, A57D
notes: VHH alone
Kd (human serum albumin [6]): 3.36 nM
Kd (mouse serum albumin): 29.3 nM
Kd [7]: 3.74 nM

B22: Alb23 G66A (VHH)
VHH: B10 VHH with A57D, G66A
notes: VHH alone
Kd (human serum albumin [6]): 3.97 nM
Kd (mouse serum albumin): 39.5 nM
Kd [7]: 5.84 nM

B23: Alb23 S103A (VHH)
VHH: B10 VHH with A57D, S103A
notes: VHH alone
Kd (human serum albumin [6]): 3.85 nM
Kd (mouse serum albumin): 38.2 nM
Kd [7]: 4.2 nM

B24: Alb23 I51A (VHH)
VHH: B10 VHH with I51A, A57D
notes: VHH alone
Kd (human serum albumin [6]): 5.17 nM
Kd (mouse serum albumin): 42.3 nM
Kd [7]: 5.53 nM

B25: Alb23 F32A (VHH)
VHH: B10 VHH with F32A, A57D
notes: VHH alone
fold decrease in affinity compared to the parental Alb23 VHH fragment (human serum albumin [8]): ≥ 10 fold

B26: TA-Fc-ABDEG-2H11 (Fc fusion)
chain: GGGGSGGGGSGGGGSGGGGSELQVVESGGGLVQAGGSLRLSCAASGRTFRSNTMGWFRQAPGKEREFVAAITWSGGTTYYADSVKGRFAISGDNAKNTVYLQMNSLKPEDTAVYYCAAEGPKWEPWNGIYHPADFGSWGQGTQVTVSS
notes: also called 2H11 parental (two-armed Fc-ABDEG-20GS-Cterm fusion); not shown: Fc-ABDEG domain
R0 pH 7.4 (human serum albumin [9]): 115 RU
koff (human serum albumin [9]): 0.00072 s⁻¹
R0 5.5/7.4 (human serum albumin [10]): 3
R0 pH 5.5 (human serum albumin [11]): 351 RU
koff (human serum albumin [11]): 0.00016 s⁻¹

B27: 2H11-v15 fused at the C-terminus of Fc-ABDEG (two-armed) (Fc fusion)
chain: B26 chain with D134A
notes: not shown: Fc-ABDEG domain
R0 pH 7.4 (human serum albumin [9]): 0.635 RU
koff (human serum albumin [9]): 0.0025 s⁻¹
R0 5.5/7.4 (human serum albumin [10]): 370
R0 pH 5.5 (human serum albumin [11]): 235 RU
koff (human serum albumin [11]): 0.00174 s⁻¹

B28: 2H11-v16 fused at the C-terminus of Fc-ABDEG (two-armed) (Fc fusion)
chain: B26 chain with F135A
notes: not shown: Fc-ABDEG domain
R0 pH 7.4 (human serum albumin [9]): 0.571 RU
koff (human serum albumin [9]): 0.00193 s⁻¹
R0 5.5/7.4 (human serum albumin [10]): 16
R0 pH 5.5 (human serum albumin [11]): 8.91 RU
koff (human serum albumin [11]): 0.00301 s⁻¹

B29: 2H11-v3 fused at the C-terminus of Fc-ABDEG (two-armed) (Fc fusion)
chain: B26 chain with P121A
notes: not shown: Fc-ABDEG domain
R0 pH 7.4 (human serum albumin [9]): 8.24 RU
koff (human serum albumin [9]): 0.0029 s⁻¹
R0 5.5/7.4 (human serum albumin [10]): 19.9
R0 pH 5.5 (human serum albumin [11]): 164 RU
koff (human serum albumin [11]): 0.000135 s⁻¹

B30: 2H11-v12 fused at the C-terminus of Fc-ABDEG (two-armed) (Fc fusion)
chain: B26 chain with Y130A
notes: not shown: Fc-ABDEG domain
R0 pH 7.4 (human serum albumin [9]): 6.32 RU
koff (human serum albumin [9]): 0.0012 s⁻¹
R0 5.5/7.4 (human serum albumin [10]): 14.9
R0 pH 5.5 (human serum albumin [11]): 93.9 RU
koff (human serum albumin [11]): 9.72e-05 s⁻¹
